For assay [1], the target named is T1, LRP6E3E4_O75581_631-1246 (Homo sapiens (Human), UniProt O75581 631-1246, biotinylated in the BLI/SPR assays (C-terminal biotin acceptor peptide)).
T1 construct: The entry holds residues 631-1246 of UniProt O75581 followed by a biotin acceptor peptide and eight His
T1 sequence: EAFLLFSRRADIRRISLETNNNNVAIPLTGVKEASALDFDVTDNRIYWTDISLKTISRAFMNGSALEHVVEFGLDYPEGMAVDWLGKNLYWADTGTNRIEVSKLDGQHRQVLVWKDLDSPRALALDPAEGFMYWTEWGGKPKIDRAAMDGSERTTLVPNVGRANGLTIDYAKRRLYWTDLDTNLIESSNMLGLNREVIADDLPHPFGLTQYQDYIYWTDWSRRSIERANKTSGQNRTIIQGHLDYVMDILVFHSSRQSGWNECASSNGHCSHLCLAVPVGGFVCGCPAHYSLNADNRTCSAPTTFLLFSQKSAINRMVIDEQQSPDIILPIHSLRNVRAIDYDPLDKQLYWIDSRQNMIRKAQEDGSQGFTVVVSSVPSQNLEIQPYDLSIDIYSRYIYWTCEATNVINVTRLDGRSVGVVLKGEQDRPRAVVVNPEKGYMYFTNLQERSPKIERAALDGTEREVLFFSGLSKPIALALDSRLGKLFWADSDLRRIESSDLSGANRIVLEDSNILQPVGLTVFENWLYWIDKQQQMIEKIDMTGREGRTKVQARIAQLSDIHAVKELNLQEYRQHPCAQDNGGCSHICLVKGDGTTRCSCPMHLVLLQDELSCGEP
In words: co-crystal structure, column Antigen. As to the method:
Structure of Lrp6E3E4:VHH/Fab complexes were determined by molecular replacement method using Phaser [Phaser crystallographic software. A. J. McCoy, R. W. Grosse-Kunstleve, P. D. Adams, M. D. Winn, L. C. Storoni, and R. J. Read. J Appl Crystallogr 40, 658-674 (2007)] with published structures Lrp6E3E4 [PDB code: 4AOP; Chen S, Bubeck D, MacDonald B T, Liang W X, Mao J H, Malinauskas T, Llorca O, Aricescu A R, Siebold C, He X, Jones E Y. Dev. Cell 21 848-61 (2011)] and a VHH or sdAb [PDB code: 6B20, chain E; Gulati S, Jin H, Masuho I, Orban T, Cai Y, Pardon E, Martemyanov K A, Kiser P D, Stewart P L, Ford C P, Steyaert J, Palczewski K. Nat Commun 91996 (2018)], followed by refinement and validation by MolProbity as implemented in Phenix [PHENIX: a comprehensive Python-based system for macromolecular structure solution. P. D. Adams, P. V. Afonine, G. Bunkoczi, V. B. Chen, I. W. Davis, N. Echols, J. J. Headd, L. W. Hung, G. J. Kapral, R. W. Grosse-Kunstleve, A. J. McCoy, N. W. Moriarty, R. Oeffner, R. J. Read, D. C. Richardson, J. S. Richardson, T. C. […]
Diffraction quality crystals of Lrp6E3E4:VHH36 (concentration=14.0 mg/mL) were obtained by grid-screen optimization in a condition containing 1.6 M ammonium sulfate and 0.1 M Tris pH 8.2. […] Structure of Lrp6E3E4:VHH36 complex was determined at a resolution of 2.70 Å, and refined to Rcryst and Rfree factors of 18.6% and 22.8%, respectively.

The target of another assay is T2, biotinylated-LRP6 CRD (UniProt O75581 631-1246, limits assumed, biotinylated).
T2 construct: LRP6 has no CRD
T2 sequence (looked up): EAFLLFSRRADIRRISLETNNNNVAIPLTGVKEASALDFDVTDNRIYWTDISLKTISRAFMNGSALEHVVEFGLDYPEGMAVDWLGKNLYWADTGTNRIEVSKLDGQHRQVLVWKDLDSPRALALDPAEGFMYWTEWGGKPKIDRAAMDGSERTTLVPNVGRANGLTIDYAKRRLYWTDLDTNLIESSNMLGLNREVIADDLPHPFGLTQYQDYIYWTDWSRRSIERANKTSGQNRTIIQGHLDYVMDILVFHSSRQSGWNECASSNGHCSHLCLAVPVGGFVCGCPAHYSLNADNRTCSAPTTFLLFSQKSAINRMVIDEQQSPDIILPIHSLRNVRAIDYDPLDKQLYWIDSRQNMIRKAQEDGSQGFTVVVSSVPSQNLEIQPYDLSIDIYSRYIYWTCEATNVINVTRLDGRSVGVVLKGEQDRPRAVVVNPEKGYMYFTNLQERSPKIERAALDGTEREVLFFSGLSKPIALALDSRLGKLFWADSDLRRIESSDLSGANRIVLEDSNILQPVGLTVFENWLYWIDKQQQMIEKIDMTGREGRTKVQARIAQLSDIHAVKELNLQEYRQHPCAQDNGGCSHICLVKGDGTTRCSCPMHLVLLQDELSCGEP
Nature of the assay: Octet BLI, biotinylated LRP6; wild type 009S-E04, not an alanine mutant. As for the experimental part:
(§1) Binding kinetics of antibody fragments to LRP5 extracellular domain (LRP5 ECD) and/or LRP6 extracellular domain (LRP6 ECD) protein targets was determined by bio-layer interferometry (BLI) using Octet Red 96 (PALL ForteBio, Fremont, Calif.) instruments at 30° C., 1000 rpm with streptavidin (SA) biosensors. C-terminal biotinylated LRP ECD recombinant protein was diluted to 20 nM in the running buffer (PBS, 0.05% Tween-20, 0.5% BSA, pH 7.2) and captured to the SA biosensor until coupling length reached 0.2 nm. Following capture of the LRP5 or LRP6, the SA biosensor with captured biotinylated-LRP5 or biotinylated LRP6 was dipped into wells containing the relevant antibody fragment at […] (0, 1.37, 4.12, 12.4, 37, 111.1, 333.3, 1000 nM) in running buffer, plus a well with only running buffer as a reference channel. KD was determined by global fitting, 1:1 binding model according to manufacturer recommended settings.
One antibody fragment, 009S-E04, was selected for alanine-scanning mutagenesis of CDRs, and the respective LRP6 binding affinities of the various mutants were determined by Octet BLI as described in Example 1.

The target of assay [2] is T1, LRP6E3E4_O75581_631-1246. Nature of the assay: Octet BLI, affinity class. As for the experimental part: as §1
For orientation: In BLI a coated tip is dipped into the sample, and binding shifts an interference pattern.

Assay [3] addresses T1, LRP6E3E4_O75581_631-1246. In words: Octet BLI or BIAcore SPR.

B1: VHH36 (013S-D05) (VHH)
VHH: QVKLEESGGGLVQAGGSLRLSCAASGRIFSIYDMGWFRQAPGKEREFVSGIRWSGGTSYADSVKGRFTISKDNAKNTIYLQMNNLKAEDTAVYYCGSRGYWGQGTLVTVSS
modifications: Gln1 modified as pyroglutamate (in the crystal structure)
notes: Construct of the crystal structure, with C-terminal GSGSG-His6; the complex was treated with carboxypeptidase A and B before crystallisation
As for B1, the binding result with LRP6E3E4_O75581_631-1246 [1] was “binds”.

B2: 009S-E04 (VHH)
VHH: DVQLVESGGGLVQAGGSLRLACAGSGRIFAIYDIAWYRHPPGNQRELVAMIRPVVTEIDYADSVKGRFTISRNNAMKTVYLQMNNLKPEDTAVYYCNAKRPWGSRDEYWGQGTQVTVSS
As a reminder, the Kd is the concentration at which binding is half-saturated. Read a high Kd as weaker binding. As for B2, the values for the Kd with biotinylated-LRP6 CRD, with LRP6E3E4_O75581_631-1246 [2] and with LRP6E3E4_O75581_631-1246 [3] were less than 100 nM, less than 500 nM and less than 500 nM, respectively.

These data come from patent US20210079089A1 (SURROZEN OPERATING, published 2021).
